From IntAct's records for PubMed 21979047 come the findings set out here.

First the molecules themselves.
B1: Complement factor H (Homo sapiens), P08603 (parent)
chain: MRLLAKIICLMLWAICVAEDCNELPPRRNTEILTGSWSDQTYPEGTQAIYKCRPGYRSLGNVIMVCRKGEWVALNPLRKCQKRPCGHPGDTPFGTFTLTGGNVFEYGVKAVYTCNEGYQLLGEINYRECDTDGWTNDIPICEVVKCLPVTAPENGKIVSSAMEPDREYHFGQAVRFVCNSGYKIEGDEEMHCSDDGFWSKEKPKCVEISCKSPDVINGSPISQKIIYKENERFQYKCNMGYEYSERGDAVCTESGWRPLPSCEEKSCDNPYIPNGDYSPLRIKHRTGDEITYQCRNGFYPATRGNTAKCTSTGWIPAPRCTLKPCDYPDIKHGGLYHENMRRPYFPVAVGKYYSYYCDEHFETPSGSYWDHIHCTQDGWSPAVPCLRKCYFPYLENGYNQNYGRKFVQGKSIDVACHPGYALPKAQTTVTCMENGWSPTPRCIRVKTCSKSSIDIENGFISESQYTYALKEKAKYQCKLGYVTADGETSGSITCGKDGWSAQPTCIKSCDIPVFMNARTKNDFTWFKLNDTLDYECHDGYESNTGSTTGSIVCGYNGWSDLPICYERECELPKIDVHLVPDRKKDQYKVGEVLKFSCKPGFTIVGPNSVQCYHFGLSPDLPICKEQVQSCGPPPELLNGNVKEKTKEEYGHSEVVEYYCNPRFLMKGPNKIQCVDGEWTTLPVCIVEESTCGDIPELEHGWAQLSSPPYYYGDSVEFNCSESFTMIGHRSITCIHGVWTQLPQCVAIDKLKKCKSSNLIILEEHLKNKKEFDHNSNIRYRCRGKEGWIHTVCINGRWDPEVNCSMAQIQLCPPPPQIPNSHNMTTTLNYRDGEKVSVLCQENYLIQEGEEITCKDGRWQSIPLCVEKIPCSQPPQIEHGTINSSRSSQESYAHGTKLSYTCEGGFRISEENETTCYMGKWSSPPQCEGLPCKSPPEISHGVVAHMSDSYQYGEEVTYKCFEGFGIDGPAIAKCLGEKWSHPPSCIKTDCLSLPSFENAIPMGEKKDVYKAGEQVTYTCATYYKMDGASNVTCINSRWTGRPTCRDTSCVNPPTVQNAYIVSRQMSKYPSGERVRYQCRSPYEMFGDEEVMCLNGNWTEPPQCKDSTGKCGPPPPIDNGDITSFPLSVYAPASSVEYQCQNLYQLEGNKRITCRNGQWSEPPKCLHPCVISREIMENYNIALRWTAKQKLYSRTGESVEFVCKRGYRLSSRSHTLRTTCWDGKLEYPTCAKR

The experiment covers variants of B1. Conditions: with albu_bovin ALB.
On to Y402H, for which the “effect of a mutation on the interaction” value is given as “decreasing interaction strength”.
